Measured values reported in patent US20150010572A1 (SAMSUNG ELECTRONICS, published 2015).

T1: Ang-2 (R&D systems; 623-AN-025/CF) (human, UniProt O15123 19-496)
T1 sequence: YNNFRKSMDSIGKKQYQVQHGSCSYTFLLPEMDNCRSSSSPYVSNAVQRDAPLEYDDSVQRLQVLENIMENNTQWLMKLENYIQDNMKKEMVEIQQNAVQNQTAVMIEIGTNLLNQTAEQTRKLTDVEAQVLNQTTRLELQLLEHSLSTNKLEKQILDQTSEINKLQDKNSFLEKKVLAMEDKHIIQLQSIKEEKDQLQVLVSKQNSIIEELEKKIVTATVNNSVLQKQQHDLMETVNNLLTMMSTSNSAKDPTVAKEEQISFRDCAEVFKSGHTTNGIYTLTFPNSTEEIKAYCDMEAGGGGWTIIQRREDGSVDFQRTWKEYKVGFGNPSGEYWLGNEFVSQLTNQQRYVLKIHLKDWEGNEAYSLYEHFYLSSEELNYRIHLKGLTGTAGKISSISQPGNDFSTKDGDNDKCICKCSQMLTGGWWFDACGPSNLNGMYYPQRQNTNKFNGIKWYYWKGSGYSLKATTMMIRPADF

T2: recombinant hAng-2 (C-His, R&D Systems) (human, UniProt O15123 19-496)
T2 construct: Bought protein; also called human Ang-2 protein; not shown: C-terminal His tag
T2 sequence: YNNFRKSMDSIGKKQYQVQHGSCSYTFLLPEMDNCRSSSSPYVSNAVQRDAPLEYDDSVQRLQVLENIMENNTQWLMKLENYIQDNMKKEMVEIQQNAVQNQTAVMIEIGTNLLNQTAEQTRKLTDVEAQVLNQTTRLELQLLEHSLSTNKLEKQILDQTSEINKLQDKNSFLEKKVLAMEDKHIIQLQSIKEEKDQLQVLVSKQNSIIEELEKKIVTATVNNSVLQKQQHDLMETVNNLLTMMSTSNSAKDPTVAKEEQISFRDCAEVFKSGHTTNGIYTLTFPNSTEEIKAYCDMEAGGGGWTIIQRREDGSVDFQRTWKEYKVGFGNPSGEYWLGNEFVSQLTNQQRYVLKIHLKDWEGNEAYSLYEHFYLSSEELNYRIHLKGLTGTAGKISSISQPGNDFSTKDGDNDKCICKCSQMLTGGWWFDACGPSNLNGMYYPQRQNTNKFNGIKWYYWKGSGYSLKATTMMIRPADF

T3: mutant Ang-2 protein, N421 substituted with alanine (FLAG-tagged at N-terminal) (human, UniProt O15123 281-496, limits assumed)
T3 chain: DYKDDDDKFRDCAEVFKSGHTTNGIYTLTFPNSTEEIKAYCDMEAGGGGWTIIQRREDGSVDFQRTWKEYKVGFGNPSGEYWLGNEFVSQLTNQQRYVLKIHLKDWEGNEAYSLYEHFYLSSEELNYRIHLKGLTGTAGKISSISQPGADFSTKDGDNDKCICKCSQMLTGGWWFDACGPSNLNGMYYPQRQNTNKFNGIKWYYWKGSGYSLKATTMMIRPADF

T4: mutant Ang-2 protein, D448 substituted with alanine (FLAG-tagged at N-terminal) (human, UniProt O15123 281-496, limits assumed)
T4 chain: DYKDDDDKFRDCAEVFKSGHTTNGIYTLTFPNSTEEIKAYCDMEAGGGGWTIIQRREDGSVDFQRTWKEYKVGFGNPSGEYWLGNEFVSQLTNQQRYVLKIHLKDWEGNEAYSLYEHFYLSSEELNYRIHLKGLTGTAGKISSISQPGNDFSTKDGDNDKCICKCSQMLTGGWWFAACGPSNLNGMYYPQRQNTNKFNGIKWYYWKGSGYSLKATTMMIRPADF

T5: mutant Ang-2 protein, F469 substituted with alanine (FLAG-tagged at N-terminal) (human, UniProt O15123 281-496, limits assumed)
T5 chain: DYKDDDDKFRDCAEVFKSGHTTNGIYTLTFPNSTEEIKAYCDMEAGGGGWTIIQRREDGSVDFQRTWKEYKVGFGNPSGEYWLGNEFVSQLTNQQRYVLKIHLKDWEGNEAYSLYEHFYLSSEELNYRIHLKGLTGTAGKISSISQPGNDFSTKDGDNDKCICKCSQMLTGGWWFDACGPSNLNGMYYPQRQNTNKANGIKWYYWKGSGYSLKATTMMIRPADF


Key:
[1] = target: T1, Ang-2 (R&D systems; 623-AN-025/CF); experiment: cell-based or functional assay
[2] = target: mutant Ang-2 protein, A449 substituted with alanine (FLAG-tagged at N-terminal) (human) (UniProt O15123); experiment: ELISA, antibody coated, 250 ng FLAG-tagged mutant Ang-2, anti-FLAG-HRP, OD450 relative to native Ang-2
[3] = target: T2, recombinant hAng-2 (C-His, R&D Systems); experiment: SPR, BIAcore T100; hAng-2 (C-His) captured by anti-His antibody on CM5 chip, antibody flowed
Procedure: The binding affinities of the above 3 kinds of antibodies to human Ang-2 protein were measured by a SPR technology using a BIAcore T100 (GE Healthcare). The SPR technology uses refractive index change of light which passes a sensor chip according to the state of materials coated onto the sensor chip, and if an antigen or an antibody is flowed onto a chip coated with the antigen or antibody, it causes changes in refractive index due to their binding and Kd values are thus calculated from the measured values.
First, anti-His antibody was immobilized on a CM5 sensor chip (GE healthcare) up to 8,000 RU levels using a pH 5.0 acetate solution and an amine coupling kit (GE Healthcare). A recombinant hAng-2 (C-His, R&D Systems) protein was flowed onto the chip to be captured at 100 to 200 RU levels.

[4] = target: T3, mutant Ang-2 protein, N421 substituted …; experiment: ELISA, antibody coated, 250 ng FLAG-tagged mutant Ang-2, anti-FLAG-HRP, OD450 relative to native Ang-2
Procedure: (§1) Each well of a 96-well MaxiSorp™ flat-bottom plate (Nunc) was coated with 50 ul (microliter) of 1000 nM antibodies (Example 2). Then, the plate was washed five times with a 0.05% (v/v) Tween-20 containing PBS (PBST) and blocked with a 1% (v/v) BSA containing PBS at a room temperature for 2 hours. 250 ng of each mutant Ang-2 protein obtained by substituting S417, Q418, P419, N421, 1434, D448, A449, P452, Y460, N467, K468, or F469 residue of Ang-2 protein tagged with a FLAG sequence ([…], Sigma) at its N-terminal with alanine was added to each well of the plate, which was then allowed to react at a room temperature for 2 hours.
(§2) The plate was washed five times with a 0.05% (v/v) Tween-20 containing PBS, reacted with an anti-FLAG antibody (SIGMA) conjugated with HRP which was diluted in a 1% (v/v) BSA containing PBS at a ratio of 1:5,000 (v/v) at a room temperature for 1 hour, and washed five times with a 0.1% (v/v) Tween-20 containing PBS.
(§3) Finally, 50 ul of TMB substrates (Cell signaling) was added to each well of the plate to induce color development reaction at a room temperature for 3 min. and the reaction was ceased by the addition of 50 ul of Stop solution (Cell signaling) and then, OD450 values were measured on a plate reader (Molecular Devices). By comparing binding affinities with mutated Ang-2 to those of unmutated Ang-2, each epitope of Ang-2 antibodies was identified. The thus obtained measurement results of the binding affinities (%) of mutant Ang-2 against the binding affinity of the native Ang-2 are shown in the following Table 9.

[5] = target: T4, mutant Ang-2 protein, D448 substituted …; experiment: as above
Procedure: as §1, §2, §3

[6] = target: T5, mutant Ang-2 protein, F469 substituted …; experiment: as above
Procedure: as §1, §2, §3

Binder	Ang-2-depedent Cell Adhesion Degree (%) [1] [%]	% at RBD binding (mutant Ang-2 against native Ang-2) [2] [%]	Kd [3] [nM]	% at RBD binding (mutant Ang-2 against native Ang-2) [4] [%]	% at RBD binding (mutant Ang-2 against native Ang-2) [5] [%]	% at RBD binding (mutant Ang-2 against native Ang-2) [6] [%]
SAIT-Ang-2-AB-m8B3 (antibody, V domains shown, also called KCLRF-BP-00293) VH: DVQLQESGPGLVKPSQSLSLSCTVTGYSIASDYAWNWIRQFPGNKVEWMGYINYRGNTDYNPSLKSRSSINRDTSKNQFFLQLNSVTTGDTATYYCARGNFEGAMDYWGQGTSVTVSS VL: TIVMTQTPKFLLVSAGDRITITCKASQSVSNDVAWYQQKPGQSPKLLIYYASNRYPGVPDRFTGSGYGTDFTFTISTVQAEDLAVYFCQQDYTSPWTFGGGTELEIK	23.6	88.5	0.0086	102	96.1	106
SAIT-Ang-2-AB-m2E7 (antibody, V domains shown, also called KCLRF-BP-00294) VH: DLQLQESGPGLVKPSQSLSLTCTVTGYSITSDYAWNWIRQFPGNKLEWMGYISYSGSTSYNPSLKSRISITRDTSKNQFFLQLNSLTTEDTATYYCARGDYGNYVGPMDYWGQGTSVTVSS VL: SIVMTQTPKFLLVSAGDRVTITCKASQSVSNDVAWYRQKPGQSPKLLIYYASNRYTGVPDRFTGSGYGTDFTFTISTVQAEDLAVYFCQQDYSSPLTFGARTKLELK	28.1	90.9	30.6	98.9	96.9	102
